From patent US20260234246A1 (CAEDO ONCOLOGY, published 2026) come the findings set out here.

The labels stand for the following.
B1: CO-1.4 antibody (chimeric CO-1 IgG4) (antibody)
heavy: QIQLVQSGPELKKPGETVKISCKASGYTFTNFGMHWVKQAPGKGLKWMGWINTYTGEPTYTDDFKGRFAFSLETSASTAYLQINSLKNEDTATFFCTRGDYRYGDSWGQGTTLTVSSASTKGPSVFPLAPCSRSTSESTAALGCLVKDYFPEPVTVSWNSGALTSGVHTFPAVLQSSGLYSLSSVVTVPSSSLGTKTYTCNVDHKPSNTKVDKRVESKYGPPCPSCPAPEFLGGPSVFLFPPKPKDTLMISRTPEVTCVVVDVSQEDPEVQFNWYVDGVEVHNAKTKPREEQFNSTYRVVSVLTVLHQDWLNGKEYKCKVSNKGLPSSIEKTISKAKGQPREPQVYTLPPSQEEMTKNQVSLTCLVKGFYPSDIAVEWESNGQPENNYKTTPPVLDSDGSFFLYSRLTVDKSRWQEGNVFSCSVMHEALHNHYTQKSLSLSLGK
light: DVVMTQTPLSLPVSLGDQASISCRSSQSLVHSNGKTYLHWYLQKPGQSPKLLIYRVSNRFSGVPDRFSGSGSGTDFTLKISRIEAEDLGVYFCSQSTHVPFTFGSGTKLEIKRTVAAPSVFIFPPSDEQLKSGTASVVCLLNNFYPREAKVQWKVDNALQSGNSQESVTEQDSKDSTYSLSSTLTLSKADYEKHKVYACEVTHQGLSSPVTKSFNRGEC
notes: Chimeric: mouse variable domains of mCO-1 with human IgG4 constant regions; also called SC-CO-1.4
B2: CO207 humanized IgG4 anti-CD47 antibody (antibody, V domains shown)
VH: QVQLVQSGSELKKPGASVKVSCKASGYTFTNFGMHWVRQAPGQGLKWMGWINTYTGEPTYTDDFKGRFVFSLDTSVSTAYLQISSLKAEDTAVYYCTRGDYRYGDSWGQGTTVTVSS
VL: DIVMTQTPLSLSVTPGQPASISCRSSQSLVHSNGKTYLHWYLQKPGQSPQLLIYRVSNRFSGVPDRFSGSGSGTDFTLKISRVEAEDVGVYYCSQSTHVPFTFGQGTKLEIK
notes: also called huCO-mAb
B3: CO202 humanized IgG4 anti-CD47 antibody (antibody, V domains shown)
VH: QVQLVQSGSELKKPGASVKVSCKASGYTFTNFGMHWVRQAPGQGLEWMGWINTYTGEPTYTDDFKGRFVFSLDTSVSTAYLQISSLKAEDTAVYYCTRGDYRYGDSWGQGTTVTVSS
VL: DIVMTQTPLSLSVTPGQPASISCRSSQSLVHSNGKTYLHWYLQKPGQPPQLLIYRVSNRFSGVPDRFSGSGSGTDFTLKISRVEAEDVGVYYCSQSTHVPFTFGQGTKLEIK
notes: also called huCO-mAb
B4: CO211 humanized IgG4 anti-CD47 antibody (antibody, V domains shown)
VH: QVQLVQSGSELKKPGASVKVSCKASGYTFTNFGMHWVRQAPGQGLKWMGWINTYTGEPTYTDDFKGRFVFSLDTSVSTAYLQISSLKAEDTAVYYCTRGDYRYGDSWGQGTTVTVSS
VL: DIVMTQTPLSLSVTPGQPASISCRSSQSLVHSNGKTYLHWYLQKPGQSPKLLIYRVSNRFSGVPDRFSGSGSGTDFTLKISRVEAEDVGVYYCSQSTHVPFTFGQGTKLEIK
notes: also called huCO-mAb
B5: CO203 humanized IgG4 anti-CD47 antibody (antibody, V domains shown)
VH: QVQLVQSGSELKKPGASVKVSCKASGYTFTNFGMHWVRQAPGQGLKWMGWINTYTGEPTYTDDFKGRFVFSLDTSVSTAYLQISSLKAEDTAVYYCTRGDYRYGDSWGQGTTVTVSS
VL: DIVMTQTPLSLSVTPGQPASISCRSSQSLVHSNGKTYLHWYLQKPGQPPQLLIYRVSNRFSGVPDRFSGSGSGTDFTLKISRVEAEDVGVYYCSQSTHVPFTFGQGTKLEIK
notes: also called huCO-mAb
B6: CO204 humanized IgG4 anti-CD47 antibody (antibody, V domains shown)
VH: QVQLVQSGSELKKPGASVKVSCKASGYTFTNFGMHWVRQAPGKGLKWMGWINTYTGEPTYTDDFKGRFVFSLDTSVSTAYLQISSLKAEDTAVYYCTRGDYRYGDSWGQGTTVTVSS
VL: DIVMTQTPLSLSVTPGQPASISCRSSQSLVHSNGKTYLHWYLQKPGQPPQLLIYRVSNRFSGVPDRFSGSGSGTDFTLKISRVEAEDVGVYYCSQSTHVPFTFGQGTKLEIK
notes: also called huCO-mAb
B7: CO209 humanized IgG4 anti-CD47 antibody (antibody, V domains shown)
VH: QVQLVQSGSELKKPGASVKVSCKASGYTFTNFGMHWVRQAPGQGLEWMGWINTYTGEPTYTDDFKGRFVFSLDTSVSTAYLQISSLKAEDTAVYYCARGDYRYGDSWGQGTTVTVSS
VL: DIVMTQTPLSLSVTPGQPASISCRSSQSLVHSNGKTYLHWYLQKPGQSPKLLIYRVSNRFSGVPDRFSGSGSGTDFTLKISRVEAEDVGVYYCSQSTHVPFTFGQGTKLEIK
notes: also called huCO-mAb
B8: CO210 humanized IgG4 anti-CD47 antibody (antibody, V domains shown)
VH: QVQLVQSGSELKKPGASVKVSCKASGYTFTNFGMHWVRQAPGQGLEWMGWINTYTGEPTYTDDFKGRFVFSLDTSVSTAYLQISSLKAEDTAVYYCTRGDYRYGDSWGQGTTVTVSS
VL: DIVMTQTPLSLSVTPGQPASISCRSSQSLVHSNGKTYLHWYLQKPGQSPKLLIYRVSNRFSGVPDRFSGSGSGTDFTLKISRVEAEDVGVYYCSQSTHVPFTFGQGTKLEIK
notes: also called huCO-mAb
B9: CO212 humanized IgG4 anti-CD47 antibody (antibody, V domains shown)
VH: QVQLVQSGSELKKPGASVKVSCKASGYTFTNFGMHWVRQAPGKGLKWMGWINTYTGEPTYTDDFKGRFVFSLDTSVSTAYLQISSLKAEDTAVYYCTRGDYRYGDSWGQGTTVTVSS
VL: DIVMTQTPLSLSVTPGQPASISCRSSQSLVHSNGKTYLHWYLQKPGQSPKLLIYRVSNRFSGVPDRFSGSGSGTDFTLKISRVEAEDVGVYYCSQSTHVPFTFGQGTKLEIK
notes: also called huCO-mAb
B10: CO213 humanized IgG4 anti-CD47 antibody (antibody, V domains shown)
VH: QVQLVQSGSELKKPGASVKVSCKASGYTFTNFGMHWVRQAPGQGLKWMGWINTYTGEPTYTDDFKGRFVFSLDTSVSTAYLQISSLKAEDTAVYYCARGDYRYGDSWGQGTTVTVSS
VL: DIVMTQTPLSLSVTPGQPASISCRSSQSLVHSNGKTYLHWYLQKPGQPPQLLIYRVSNRFSGVPDRFSGSGSGTDFTLKISRVEAEDVGVYYCSQSTHVPFTFGQGTKLEIK
notes: also called huCO-mAb
B11: CO208 humanized IgG4 anti-CD47 antibody (antibody, V domains shown)
VH: QVQLVQSGSELKKPGASVKVSCKASGYTFTNFGMHWVRQAPGKGLKWMGWINTYTGEPTYTDDFKGRFVFSLDTSVSTAYLQISSLKAEDTAVYYCTRGDYRYGDSWGQGTTVTVSS
VL: DIVMTQTPLSLSVTPGQPASISCRSSQSLVHSNGKTYLHWYLQKPGQSPQLLIYRVSNRFSGVPDRFSGSGSGTDFTLKISRVEAEDVGVYYCSQSTHVPFTFGQGTKLEIK
notes: also called huCO-mAb
B12: CO206 humanized IgG4 anti-CD47 antibody (antibody, V domains shown)
VH: QVQLVQSGSELKKPGASVKVSCKASGYTFTNFGMHWVRQAPGQGLEWMGWINTYTGEPTYTDDFKGRFVFSLDTSVSTAYLQISSLKAEDTAVYYCTRGDYRYGDSWGQGTTVTVSS
VL: DIVMTQTPLSLSVTPGQPASISCRSSQSLVHSNGKTYLHWYLQKPGQSPQLLIYRVSNRFSGVPDRFSGSGSGTDFTLKISRVEAEDVGVYYCSQSTHVPFTFGQGTKLEIK
notes: also called huCO-mAb

T1 sequence (Q08722 19-139 limits assumed): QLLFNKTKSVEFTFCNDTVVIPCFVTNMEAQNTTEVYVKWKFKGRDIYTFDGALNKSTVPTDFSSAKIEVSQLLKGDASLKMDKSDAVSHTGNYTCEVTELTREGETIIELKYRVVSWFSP

The first test concerns the target T1, recombinant CD47 (recCD47), SinoBiological 12283-H27H-B, biotinylated (human, UniProt Q08722 19-139, biotinylated (AVI-tag)).
T1 construct: Bought protein, 17 kDa; At 17 kDa it can only be a part of it; also called recombinant biotinylated CD47; not shown: C-terminal His- and AVI-tag
Description: SPR Biacore S200, single-cycle, recCD47 on SA chip 700 RU, antibody as analyte, 25 C, 1:1 model. For orientation: SPR reads the build-up and loss of mass on a sensor chip optically.
As a reminder, the Kd is the constant that tells how readily two partners part at equilibrium. As usually defined, the koff is the rate constant with which the complex falls apart. What is called kon is the rate constant with which the complex forms. Regarding B1, the equilibrium dissociation constant (Kd) is 0.003 nM, the koff is 4.4e-06 s⁻¹ and the kon was determined as 1.5e+06 M⁻¹ s⁻¹.

The target in a further test is T1, recombinant CD47 (recCD47), …. Description: SPR Biacore S200, single-cycle, recCD47 on SA chip 100 RU, antibody as analyte, 25 C, 1:1 model.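 Also: antibodies were injected over the captured CD47 at a series of concentrations, and KD was derived as the dissociation rate constant divided by the association rate constant.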
Description: The binding affinity of the huCO-mAbs to CD47 was determined via surface plasmon resonance (SPR) on a Biacore S200 system. Recombinant biotinylated CD47 was immobilized on an SA streptavidin chip to a level of 100 RU (in 10 mM NaAc pH5.0). The huCO-mAbs reacted with recombinant CD47 at gradient concentrations.
A 1:1 binding model was used to fit the data. […] The affinity constant KD is calculated as kd/kₐ.
For B2, the Kd worked out at 0.0153 nM, the koff stood at 7.3e-05 s⁻¹ and the kon amounted to 4.8e+06 M⁻¹ s⁻¹.

Consider B3, for which the dissociation constant (Kd) stood at 0.023 nM, the koff was 0.00012 s⁻¹ and the kon stood at 5.3e+06 M⁻¹ s⁻¹.

Consider B4, for which the dissociation constant Kd is 0.0135 nM, the koff came out at 6.8e-05 s⁻¹ and the kon was 5.1e+06 M⁻¹ s⁻¹.

B5: the Kd stood at 0.0164 nM, the off-rate constant (koff) stood at 7.9e-05 s⁻¹ and the kon was 4.8e+06 M⁻¹ s⁻¹.

Consider B6, for which the Kd amounted to 0.0149 nM, the dissociation rate constant (koff) is 8.5e-05 s⁻¹ and the kon stood at 5.7e+06 M⁻¹ s⁻¹.

With B7, the Kd amounted to 0.0386 nM, the koff came out at 0.00032 s⁻¹ and the kon stood at 8.2e+06 M⁻¹ s⁻¹.

As for B8, the Kd came out at 0.017 nM, the koff came to 8.3e-05 s⁻¹ and the kon stood at 4.9e+06 M⁻¹ s⁻¹.

As to B9, the Kd was 0.0123 nM, the koff worked out at 7.2e-05 s⁻¹ and the kon stood at 5.8e+06 M⁻¹ s⁻¹.

B10: the Kd was 0.032 nM, the dissociation rate constant (koff) is 0.00034 s⁻¹ and the kon turned out to be 1.1e+07 M⁻¹ s⁻¹.

For the molecule B11, the Kd was determined as 0.016 nM, the off-rate (koff) came out at 8.1e-05 s⁻¹ and the kon amounted to 5e+06 M⁻¹ s⁻¹.

As for B12, the Kd is 0.0205 nM, the koff was 0.0001 s⁻¹ and the kon was found to be 5.1e+06 M⁻¹ s⁻¹.
